Measured values taken from US20050202403A1.
Values joined by “and” are separate entries in the source; they are usually repeats but may differ in a detail not shown here. Equal values may be shown once.

Target: yeast Gβγ (STE4/STE18) (Saccharomyces cerevisiae) (UniProt P18851)
Test: cell-based or functional assay

Chain of yeast Gβγ (STE4/STE18) (Saccharomyces cerevisiae) (P18851 whole entry, chain 1 of 2): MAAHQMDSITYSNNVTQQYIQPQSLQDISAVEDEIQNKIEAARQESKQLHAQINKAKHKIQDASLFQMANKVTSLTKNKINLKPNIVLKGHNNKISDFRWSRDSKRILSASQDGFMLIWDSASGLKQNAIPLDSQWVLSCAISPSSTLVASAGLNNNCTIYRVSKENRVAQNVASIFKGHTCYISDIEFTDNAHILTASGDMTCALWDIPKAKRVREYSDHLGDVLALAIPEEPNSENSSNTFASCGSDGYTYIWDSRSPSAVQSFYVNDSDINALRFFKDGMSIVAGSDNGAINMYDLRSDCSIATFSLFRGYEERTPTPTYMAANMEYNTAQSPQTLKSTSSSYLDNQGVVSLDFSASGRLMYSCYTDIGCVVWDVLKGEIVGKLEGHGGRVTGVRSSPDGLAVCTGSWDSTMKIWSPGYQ
Chain of yeast Gβγ (STE4/STE18) (Saccharomyces cerevisiae) (P18852 1-107, chain 2 of 2, further chain): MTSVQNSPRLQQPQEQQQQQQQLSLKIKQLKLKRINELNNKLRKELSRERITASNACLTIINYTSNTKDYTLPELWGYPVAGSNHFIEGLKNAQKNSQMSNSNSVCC
Chain of GPA1-Gα12 S288P chimera (Cp3822) (P08539 1-41, stated change not applied): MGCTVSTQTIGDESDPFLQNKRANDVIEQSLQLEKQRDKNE
Chain of GPA1-Gα12 chimera (Cp3435) (P08539 1-41, change not shown): as the sequence (P08539 1-41, stated change not applied) above
Chain of Gpal(1-43)-Gαi2(36-242)-GαoB(243-354) S280P chimera (Cp3635) (P08539 1-43, stated change not applied): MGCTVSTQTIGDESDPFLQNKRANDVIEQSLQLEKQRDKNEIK
Chain of rat Gαs, wild type (Cp3098) (P63095 2-394): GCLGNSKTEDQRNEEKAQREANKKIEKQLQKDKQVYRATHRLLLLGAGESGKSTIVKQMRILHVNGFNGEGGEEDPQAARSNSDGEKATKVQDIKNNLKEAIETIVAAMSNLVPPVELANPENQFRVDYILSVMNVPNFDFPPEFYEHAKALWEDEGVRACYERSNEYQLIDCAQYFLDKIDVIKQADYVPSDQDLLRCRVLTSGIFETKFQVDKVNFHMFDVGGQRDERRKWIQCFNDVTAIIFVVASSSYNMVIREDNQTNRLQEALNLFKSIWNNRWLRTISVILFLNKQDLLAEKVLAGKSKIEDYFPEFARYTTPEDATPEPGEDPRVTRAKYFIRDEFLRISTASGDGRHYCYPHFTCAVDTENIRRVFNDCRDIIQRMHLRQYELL
Chain of GPA1(20)-Gα16(S-P) (P08539 1-20): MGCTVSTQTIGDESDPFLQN
Chain of GPA1(41)-Gαi2-Gαo(40) (P08539 1-41): as the sequence (P08539 1-41, stated change not applied) above
Chain of GPA1(41)-Gαi1 (P08539 1-41): as the sequence (P08539 1-41, stated change not applied) above

**Q.** For “GPA1(20)-Gα16 (from UniProt P08539 1-20)”, which min[AT]i is on record?
**A.** Its min[AT]i is 1 mM.

**Q.** “GPA1(20)-Gα16(S-P) (from UniProt P08539 1-20)” was tested. Which min[AT]i did it give?
**A.** Its min[AT]i is 0.5 mM.

**Q.** Which min[AT]i does the source give for “GPA1(41)-Gαi1 (from UniProt P08539 1-41)” here?
**A.** Its min[AT]i is 0.5 mM.

**Q.** How did the min[AT]i turn out when “GPA1(41)-Gαi2 (from UniProt P08539 1-41; P04899 36-355)” was run?
**A.** The min[AT]i was 0.5 mM.

**Q.** How did the min[AT]i turn out when “GPA1(41)-Gαi2-Gαo(40) (from UniProt P08539 1-41)” was run?
**A.** The min[AT]i was 1 mM.

**Q.** “GPA1(41)-Gαi3 (from UniProt P08539 1-41; P08754 36-354)” was tested. Which min[AT]i did it give?
**A.** Its min[AT]i is 0.5 mM.

**Q.** For “GPA1-Gα12 S288P chimera (Cp3822) (from UniProt P08539 1-41)”, which growth of gpa1 fus1-HIS3 yeast on aminotriazole is on record?
**A.** Its growth of gpa1 fus1-HIS3 yeast on aminotriazole is 0.5 mM.

**Q.** And the min[AT]i?
**A.** The min[AT]i was 1 mM.

**Q.** Which growth of gpa1 fus1-HIS3 yeast on aminotriazole does the source give for “GPA1-Gα12 chimera (Cp3435) (from UniProt P08539 1-41)” here?
**A.** Its growth of gpa1 fus1-HIS3 yeast on aminotriazole is 2.5 mM and 1 mM.

**Q.** “Gpal(1-43)-Gα16(45-374) S270P chimera (Cp3699) (from UniProt P08539 1-43; P30679 45-374)” was tested. Which min[AT]i did it give?
**A.** Its min[AT]i is 1 mM.

**Q.** With “Gpal(1-43)-Gαi2(36-242)-GαoB(243-354) S280P chimera (Cp3635) (from UniProt P08539 1-43)” as the substance, how does the min[AT]i read?
**A.** The min[AT]i was 1 mM.

**Q.** How did the min[AT]i turn out when Gαi1 was run?
**A.** The min[AT]i was 1.5 mM.

**Q.** How did the growth of the gpal fusl-HIS3 strain on 3-AT turn out when “rat Gαs D229V (from UniProt P63095 2-394)” was run?
**A.** The growth of the gpal fusl-HIS3 strain on 3-AT was 0.2 mM.

**Q.** For “rat Gαs E10K (from UniProt P63095 2-394)”, which growth of the gpal fusl-HIS3 strain on 3-AT is on record?
**A.** The growth of the gpal fusl-HIS3 strain on 3-AT was 0.2 mM.

**Q.** For “rat Gαs N254D (from UniProt P63095 2-394)”, which growth of the gpal fusl-HIS3 strain on 3-AT is on record?
**A.** Its growth of the gpal fusl-HIS3 strain on 3-AT is 0.2 mM.

**Q.** Which growth of the gpal fusl-HIS3 strain on 3-AT does the source give for “rat Gαs S286P (from UniProt P63095 2-394)” here?
**A.** Its growth of the gpal fusl-HIS3 strain on 3-AT is 0.2 mM.

**Q.** For “rat Gαs, wild type (Cp3098) (from UniProt P63095 2-394)”, which growth of a gpal fusl-HIS3 colony on media lacking histidine with 3-AT is on record?
**A.** The growth of a gpal fusl-HIS3 colony on media lacking histidine with 3-AT was 1 mM.

Target: human adenosine A2a receptor (human) (UniProt P29274)
Test: cell-based or functional assay

Chain of human adenosine A2a receptor (human) (P29274 whole entry): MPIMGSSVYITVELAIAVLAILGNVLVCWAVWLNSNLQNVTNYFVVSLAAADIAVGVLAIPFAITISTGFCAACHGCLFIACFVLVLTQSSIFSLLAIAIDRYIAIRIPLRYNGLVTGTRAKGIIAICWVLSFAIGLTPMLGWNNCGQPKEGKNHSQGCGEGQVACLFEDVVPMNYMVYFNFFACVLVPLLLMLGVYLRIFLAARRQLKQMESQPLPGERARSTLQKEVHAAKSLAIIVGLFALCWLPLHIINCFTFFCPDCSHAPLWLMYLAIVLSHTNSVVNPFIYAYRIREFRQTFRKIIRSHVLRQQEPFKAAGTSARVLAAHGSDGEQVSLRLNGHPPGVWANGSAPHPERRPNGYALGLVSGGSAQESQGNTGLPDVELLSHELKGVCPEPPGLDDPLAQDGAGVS

**Q.** With “rat Gαs D229S (Cp3390) (from UniProt P63095 2-394)” as the substance, how does the fusl-lacZ reporter, β-galactosidase units on addition of NECA read?
**A.** The fusl-lacZ reporter, β-galactosidase units on addition of NECA was 10 fold.

**Q.** Which fusl-lacZ reporter, β-galactosidase units on addition of NECA does the source give for “rat Gαs E10K (from UniProt P63095 2-394)” here?
**A.** The fusl-lacZ reporter, β-galactosidase units on addition of NECA was 10 fold.

**Q.** Which fusl-lacZ reporter, β-galactosidase units on addition of NECA does the source give for “rat Gαs E10K D229S double mutant (from UniProt P63095 2-394)” here?
**A.** The fusl-lacZ reporter, β-galactosidase units on addition of NECA was 10 fold.

**Q.** “rat Gαs N254D (from UniProt P63095 2-394)” was tested. Which fusl-lacZ reporter, β-galactosidase units on addition of NECA did it give?
**A.** Its fusl-lacZ reporter, β-galactosidase units on addition of NECA is 10 fold.

**Q.** “rat Gαs S286P (from UniProt P63095 2-394)” was tested. Which fusl-lacZ reporter, β-galactosidase units on addition of NECA did it give?
**A.** The fusl-lacZ reporter, β-galactosidase units on addition of NECA was 10 fold.
